Experimental findings from patent US20150307599A1 (GARVAN INSTITUTE OF MEDICAL RESEARCH, published 2015) are described below.

In test [1] the target is T1, biotin-NPY20-36 (SMILES …).
T1 construct: Captured on neutravidin or streptavidin plates
T1 peptide: {Biotin-Ahx}-YYSALRHYINLITRQRY-NH2
Briefly: soluble scFv ELISA, biotin-NPY20-36 on streptavidin, anti-cMyc detection. As to the method: (§1) In order to analyze antigen binding, ELISA plates were coated with 1 ug/mL biotin-NPY₂₀₋₃₆ on 10 ug/mL streptavidin […] streptavidin only.
(§2) Plates were then blocked with 5% skim milk/PB ST and incubated with supernatant from the IPTG-induced cultures. Binding of soluble scFv to wells was detected with peroxidase conjugated anti-cMyc.

Another test has as its target biotin-NPY (N-terminal Biotin-Ahx-; C-terminal amide (-NH2)). In words: BLI (ForteBio Blitz), biotinylated peptide on streptavidin sensor, scFv in solution. The method, then: (§3) Affinity of the purified scFv for biotin-NPY, biotin-hPYY and biotin-hPP was determined using a Blitz system (ForteBio). Streptavidin Biosensors were blocked for 1 hr with 1% BSA in PBS. Biosensors were then coupled for 120 seconds with 1 μM solutions of biotinylated peptide followed by a 30 second baseline measurement. The sensors were then transferred to varying dilutions of purified scFv and association was measured for 300 seconds. The sensors were then transferred to PBS and dissociation was measured for 900 seconds. Global fits were determined for association and dissociation curves at two concentrations of each scFv against each of the peptides. All curves were referenced with peptide-only and scFv-only runs.
For orientation: In BLI a coated tip is dipped into the sample, and binding shifts an interference pattern.

For the next test, the target named is biotin-hPYY (human, N-terminal Biotin-Ahx-; C-terminal amide (-NH2)). Described as above. The method, then:
as §3

For test [2], the target named is T1, biotin-NPY20-36. Briefly: soluble scFv ELISA, biotin-NPY20-36 on streptavidin. The method, then:
as §1, §2
(In general: ELISA stands for enzyme-linked immunosorbent assay.)

Another test concerns the target T2, biotin-hPP (human, N-terminal Biotin-Ahx-; C-terminal amide (-NH2)).
T2 peptide: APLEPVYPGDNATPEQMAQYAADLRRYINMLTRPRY
In words: BLI (ForteBio Blitz), biotinylated peptide on streptavidin sensor, scFv in solution. As to the method: as §3

Test [3] addresses T1, biotin-NPY20-36. Briefly: phage ELISA, scFv on phage, anti-M13 detection. As to the method:
Overnight cultures were grown from clones transformed with the humanized 5E12-B7 scFv genes pHEN1 vector. Phages were then produced through overnight incubation after rescue with KM13 helper phage. In order to analyze antigen binding, ELISA plates were coated with 500 ng/mL biotin-NPY₂₀₋₃₆ on 10 ug/mL neutravidin; 10 ug/mL neutravidin only; 10 ug/mL Protein A or 10 ug/mL Protein L
ELISA plates were blocked with 5% skim milk/PB ST then incubated with phage culture supernatant which had also been blocked with 5% skim milk/1% Tween (final concentration). Binding of scFv-phage to wells was detected with Peroxidase conjugated anti-M13 secondary antibody.

Where a chain is given by its changes, count along the chain named. The star is where a group is joined. Biotin = O=C1N[C@H]2[C@H](CS[C@H]2CCCCC(=O)*)N1; Ahx = NCCCCCC(=O)O Where only a bound is given, the exact number is not on record here.

Chain of biotin-hPYY (human, N-terminal Biotin-Ahx-; C-terminal amide (-NH2)) (peptide, as listed by the source): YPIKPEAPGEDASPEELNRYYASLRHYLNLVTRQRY

B1: mouse 5E12-B7 scFv PSE2 (scFv, V domains shown, not shown: small tags and cut ends)
VH: QVQLQHPGTEVVKPGASVKLSCKASGYTFTNYWMHWVKQRPGQGLEWIGNIDPSNGGTNYNEKFKSKATLTVDKSSSTAYMQLSSLTSEDSAVYYCASFAYWGQGTLVTVSS
VL: DIQMTQSPASLSASVGETVTITCRASGNIHNYLAWYQQKQGKSPQLLVYNAKTLADGVPSRFSGSGSGTQYSLKISSLRPEDFGSYYCQHFWSPPFTFGSGTKLEIK
notes: also called 5E12 (mouse); mouse 5E12 PSE2
By Kd is commonly meant the free concentration of one partner at which half of the binding sites on the other are occupied at equilibrium, for simple one-to-one binding. Higher therefore signals lower affinity. In the case of B1, the binding result with biotin-NPY20-36 [1] is given as “binds”. In addition, the Kd in the test with biotin-NPY turned out to be 0.0221 µM; with biotin-hPYY, 0.0329 µM.

B2: scFv-3 (human) (scFv)
scFv: EVQLLESGGGLVQPGGSLRLSCAASGFRFSDEDMGWVRQAPGKGLEWVSSIYGPSGSTYYADSVKGRFTISRDNSKNTLYLQMNSLRAEDTAVYYCAKDDVGTGTFDYWGQGTLVTVSSGGGGSGGGGSGGGGSTDIQMTQSPSSLSASVGDRVTITCRASQYIYYALNWYQQKPGKAPKLLIYDYSALQSGVPSRFSGSGSGTDFTLTISSLQPEDFATYYCQQSYYHPATFGQGTKVEIKR
notes: Human scFv from the Garvan-2 phage library; Whole entry used as named
Take B2: in the test with biotin-NPY20-36 [2], the binding result is given as “binds”. Further, the “max signal (nm)” value with biotin-hPP was < 0.2 nm. The equilibrium dissociation constant (Kd) with biotin-hPYY came out at 1.91 µM.

B3: scFv-7 (human) (scFv)
scFv: EVQLLESGGGLVQPGGSLRLSCAASGFRFDYEDMGWVRQAPGKGLEWVSAIASDGDSTYYADSVKGRFTISRDNSKNTLYLQMNSLRAEDTAVYYCAKIYYDGAYRVFDYWGQGTLVTVSSGGGGSGGGGSGGGGSTDIQMTQSPSSLSASVGDRVTITCRASQSISSYLNWYQQKPGKAPKLLIYSASYLQSGVPSRFSGSGSGTDFTLTISSLQPEDFATYYCQQYSMLPTTFGQGTKVEIKR
notes: as for B2
B3: the binding result with biotin-NPY20-36 [2] is on record as “binds”. The “max signal (nm)” value with biotin-hPP is < 0.2 nm. Further, the Kd in the test with biotin-NPY amounted to 9.25 µM.

B4: h5E12 IGHV1-46/DPK9 scFv (humanized) (scFv)
scFv: QVQLVQSGAEVKKPGASVKVSCKASGYTFTNYWMHWVRQAPGQGLEWMGNIDPSNGGTNYNEKFKSRVTMTRDTSTSTVYMELSSLRSEDTAVYYCASFAYWGQGTLVTVSSGGGGSGGGGSGGGGSTDIQMTQSPSSLSASVGDRVTITCRASGNIHNYLAWYQQKPGKAPKLLIYNAKTLADGVPSRFSGSGSGTDFTLTISSLQPEDFATYYCQHFWSPPFTFGQGTKVEIKR
notes: Humanized 5E12 scFv
For the molecule B4, in the test with biotin-NPY20-36 [3], the binding result is on record as “binds”. In addition, in the test with biotin-hPP, the “max signal (nm)” value is < 0.2 nm. Further, the Kd in the test with biotin-NPY came out at 0.905 µM; with biotin-hPYY, 1.04 µM.

B5: h5E12 IGHV1-69/DPK9 scFv (humanized) (scFv)
scFv: B4 scFv with A16S, M70I, R72A, T74E, V79A
notes: Humanized 5E12 scFv
For B5, the binding result in the test with biotin-NPY20-36 [3] is “binds”. In addition, the “max signal (nm)” value with biotin-hPP was < 0.2 nm. The figures for the Kd in the test with biotin-NPY and with biotin-hPYY were 0.142 µM and 0.14 µM, respectively.

B6: scFv-6 (human) (scFv)
scFv: EVQLLESGGGLVQPGGSLRLSCAASGFRFSAEDMGWVRQAPGKGLEWVSSIASAGASTYYADSVKGRFTISRDNSKNTLYLQMNSLRAEDTAVYYCAKHMYSYAIFDYWGQGTLVTVSSGGGGSGGGGSGGGGSTDIQMTQSPSSLSASVGDRVTITCRASQDIADALNWYQQKPGKAPKLLIYAASSLQSGVPSKFSGSGSGTDFTLTISSLQPEDFATYYCQQGYVHPPTFGQGTKVEIKR
notes: as for B2
B6: the binding result with biotin-NPY20-36 [2] was “binds”. In addition, the “max signal (nm)” value with biotin-hPP was < 0.2 nm. Also, the Kd with biotin-NPY was 0.177 µM; with biotin-hPYY it was 3.24 µM.
